Data set [1] concerns HeLa Kyoto. Nature of the data set: melting temperature (median over replicates), in situ; higher = more thermally stable.
The subject of data set [2] is HeLa Kyoto. Briefly: solubility change mitosis vs G1/S (difference of NP-40 vs SDS log2 ratios) (log2 ratio difference); higher = more soluble in mitosis.
Data set [3] concerns HeLa Kyoto. Briefly: solubility in G1/S (NP-40 vs SDS abundance) (log2 ratio); higher = more soluble. The following applies: cell cycle stage: G1/S.
Data set [4] deals with HeLa Kyoto. Nature of the data set: thermal stability score vs G1/S (z-score of summed log2 fold changes over temperatures); higher = more thermally stable than in G1/S.
Where [5] appears, read: cell cycle stage: early G1 (4.5 h after nocodazole release).
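For melting temperature (median over replicates), in situ in this document: HeLa Kyoto cells synchronized by double thymidine or nocodazole block, proteins quantified by TMT10plex mass spectrometry, three independent biological replicates.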
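For solubility change mitosis vs G1/S (difference of NP-40 vs SDS log2 ratios) in this document: synchronized HeLa Kyoto cells (double thymidine block for G1/S, nocodazole release for mitosis), protein amounts in NP-40 versus SDS lysates quantified by mass spectrometry, three biological replicates.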
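For solubility in G1/S (NP-40 vs SDS abundance) in this document: HeLa Kyoto cells arrested at G1/S by double thymidine block, proteins quantified by TMT10plex mass spectrometry in mild NP-40 versus SDS extracts, three biological replicates.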
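For thermal stability score vs G1/S (z-score of summed log2 fold changes over temperatures) in this document: synchronized HeLa Kyoto cells, proteins quantified by TMT10plex mass spectrometry, three biological replicates, mitosis taken 0.5 h after nocodazole release, G1/S directly after double thymidine block.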

As for “MQPDMSLNVIKMKSSDFLESAELDSGGFGKVSLCFHRTQGLMIMKTVYKGPNCIEHNEALLEEAKMMNRLRHSRVVKLLGVIIEEGKYSLVMEYMEKGNLMHVLKAEMSTPLSVKGRIILEIIEGMCYLHGKGVIHKDLKPENILVDNDFHIKIADLGLASFKMWSKLNNEEHNELREVDGTAKKNGGTLYYMAPEHLNDVNAKPTEKSDVYSFAVVLWAIFANKEPYENAICEQQLIMCIKSGNRPDVDDITEYCPREIISLMKLCWEANPEARPTFPGIEEKFRPFYLSQLEESVEEDVKSLKKEYSNENAVVKRMQSLQLDCVAVPSSRSNSATEQPGSLHSSQGLGMGPVEESWFAPSLEHPQEENEPSLQSKLQDEANYHLYGSRMDRQTKQQPRQNVAYNREEERRRRVSHDPFAQQRPYENFQNTEGKGTAYSSAASHGNAVHQPSGLTSQPQVLYQNNGLYSSHGFGTRPLDPGTAGPRVWYRPIPSHMPSLHNIPVPETNYLGNTPTMPFSSLPPTDESIKYTIYNSTGIQIGAYNYMEIGGTSSSLLDSTNTNFKEEPAAKYQAIFDNTTSLTDKHLDPIRENLGKHWKNCARKLGFTQSQIDEIDHDYERDGLKEKVYQMLQKWVMREGIKGATVGKLAQALHQCSRIDLLSSLIYVSQN [RIPK1]”, the melting temperature was 48.4 °C in data set [1] (cell cycle stage: G1/S) and 48 °C in data set [1] (cell cycle stage: mitosis). Further, the “solubility change mitosis (log2)” value in data set [2] was -0.114. Moreover, the “solubility in G1/S (log2)” value in data set [3] was 0.0577. For the same sequence, the thermal stability score came out at 0.9 in data set [4] (setting [5]) and 1.82 in data set [4] (cell cycle stage: mitosis).

As to “MQPWHGKAMQRASEAGATAPKASARNARGAPMDPTESPAAPEAALPKAGKFGPARKSGSRQKKSAPDTQERPPVRATGARAKKAPQRAQDTQPSDATSAPGAEGLEPPAAREPALSRAGSCRQRGARCSTKPRPPPGPWDVPSPGLPVSAPILVRRDAAPGASKLRAVLEKLKLSRDDISTAAGMVKGVVDHLLLRLKCDSAFRGVGLLNTGSYYEHVKISAPNEFDVMFKLEVPRIQLEEYSNTRAYYFVKFKRNPKENPLSQFLEGEILSASKMLSKFRKIIKEEINDIKDTDVIMKRKRGGSPAVTLLISEKISVDITLALESKSSWPASTQEGLRIQNWLSAKVRKQLRLKPFYLVPKHAKEGNGFQEETWRLSFSHIEKEILNNHGKSKTCCENKEEKCCRKDCLKLMKYLLEQLKERFKDKKHLDKFSSYHVKTAFFHVCTQNPQDSQWDRKDLGLCFDNCVTYFLQCLRTEKLENYFIPEFNLFSSNLIDKRSKEFLTKQIEYERNNEFPVFDEF [MB21D1]”, the melting temperature was found to be 52.6 °C in data set [1] (cell cycle stage: G1/S) and 53.9 °C in data set [1] (cell cycle stage: mitosis). For the same sequence, the “solubility change mitosis (log2)” value in data set [2] is -0.155. The “solubility in G1/S (log2)” value in data set [3] was -1.72. In addition, the figures for the thermal stability score in data set [4] (setting [5]) and in data set [4] (cell cycle stage: mitosis) were -0.379 and 1.19, respectively.

In the case of “MQRLLFPPLRALKGRQYLPLLAPRAAPRAQCDCIRRPLRPGQYSTISEVALQSGRGTVSLPSKAAERVVGRWLLVCSGTVAGAVILGGVTRLTESGLSMVDWHLIKEMKPPTSQEEWEAEFQRYQQFPEFKILNHDMTLTEFKFIWYMEYSHRMWGRLVGLVYILPAAYFWRKGWLSRGMKGRVLALCGLVCFQGLLGWYMVKSGLEEKSDSHDIPRVSQYRLAAHLGSALVLYCASLWTSLSLLLPPHKLPETHQLLQLRRFAHGTAGLVFLTALSGAFVAGLDAGLVYNSFPKMGESWIPEDLFTFSPILRNVFENPTMVQFDHRILGITSVTAITVLYFLSRRIPLPRRTKMAAVTLLALAYTQVGLGISTLLMYVPTPLAATHQSGSLALLTGALWLMNELRRVPK [COX15]”, the figures for the melting temperature in data set [1] (cell cycle stage: G1/S) and in data set [1] (cell cycle stage: mitosis) were 56.5 °C and 57.9 °C, respectively. For the same sequence, the “solubility change mitosis (log2)” value in data set [2] is -0.0819. Also, in data set [3], the “solubility in G1/S (log2)” value was -0.208. Also, the thermal stability score in data set [4] (setting [5]) was -2.54; in data set [4] (cell cycle stage: mitosis), -1.54.

Consider “MQRVSGLLSWTLSRVLWLSGLSEPGAARQPRIMEEKALEVYDLIRTIRDPEKPNTLEELEVVSESCVEVQEINEEEYLVIIRFTPTVPHCSLATLIGLCLRVKLQRCLPFKHKLEIYISEGTHSTEEDINKQINDKERVAAAMENPNLREIVEQCVLEPD [FAM96A]”, for which the melting temperature in data set [1] (cell cycle stage: G1/S) came out at 54.9 °C; in data set [1] (cell cycle stage: mitosis) it was 55.3 °C. Besides, the “solubility change mitosis (log2)” value in data set [2] worked out at 0.184. In addition, the “solubility in G1/S (log2)” value in data set [3] was 0.0285. For the same sequence, the results for the thermal stability score in data set [4] (setting [5]) and in data set [4] (cell cycle stage: mitosis) were 0.017 and -0.983, respectively.

As to “MQSNKTFNLEKQNHTPRKHHQHHHQQQHHQQQQQQPPPPPIPANGQQASSQNEGLTIDLKNFRKPGEKTFTQRSRLFVGNLPPDITEEEMRKLFEKYGKAGEVFIHKDKGFGFIRLETRTLAEIAKVELDNMPLRGKQLRVRFACHSASLTVRNLPQYVSNELLEEAFSVFGQVERAVVIVDDRGRPSGKGIVEFSGKPAARKALDRCSEGSFLLTTFPRPVTVEPMDQLDDEEGLPEKLVIKNQQFHKEREQPPRFAQPGSFEYEYAMRWKALIEMEKQQQDQVDRNIKEAREKLEMEMEAARHEHQVMLMRQDLMRRQEELRRMEELHNQEVQKRKQLELRQEEERRRREEEMRRQQEEMMRRQQEGFKGTFPDAREQEIRMGQMAMGGAMGINNRGAMPPAPVPAGTPAPPGPATMMPDGTLGLTPPTTERFGQAATMEGIGAIGGTPPAFNRAAPGAEFAPNKRRRY [NONO]”, the melting temperature in data set [1] (cell cycle stage: G1/S) was 46.6 °C; in data set [1] (cell cycle stage: mitosis), 47.8 °C. Further, the “solubility change mitosis (log2)” value in data set [2] amounted to 0.501. For the same sequence, in data set [3], the “solubility in G1/S (log2)” value was -0.113. Also, the figures for the thermal stability score in data set [4] (setting [5]) and in data set [4] (cell cycle stage: mitosis) were 4.71 and 11.4, respectively.

Take “MQTFLKGKRVGYWLSEKKIKKLNFQAFAELCRKRGMEVVQLNLSRPIEEQGPLDVIIHKLTDVILEADQNDSQSLELVHRFQEYIDAHPETIVLDPLPAIRTLLDRSKSYELIRKIEAYMEDDRICSPPFMELTSLCGDDTMRLLEKNGLTFPFICKTRVAHGTNSHEMAIVFNQEGLNAIQPPCVVQNFINHNAVLYKVFVVGESYTVVQRPSLKNFSAGTSDRESIFFNSHNVSKPESSSVLTELDKIEGVFERPSDEVIRELSRALRQALGVSLFGIDIIINNQTGQHAVIDINAFPGYEGVSEFFTDLLNHIATVLQGQSTAMAATGDVALLRHSKLLAEPAGGLVGERTCSASPGCCGSMMGQDAPWKAEADAGGTAKLPHQRLGCNAGVSPSFQQHCVASLATKASSQ [ITPK1]”: the melting temperature turned out to be 51.9 °C in data set [1] (cell cycle stage: G1/S) and 51.3 °C in data set [1] (cell cycle stage: mitosis). Moreover, in data set [2], the “solubility change mitosis (log2)” value was -0.011. For the same sequence, the “solubility in G1/S (log2)” value in data set [3] stood at 0.0668. Further, the figures for the thermal stability score in data set [4] (setting [5]) and in data set [4] (cell cycle stage: mitosis) were 0.291 and -1.14, respectively.

As to “MRALRAGLTLASGAGLGAVVEGWRRRREDARAAPGLLGRLPVLPVAAAAELPPVPGGPRGPGELAKYGLPGLAQLKSRESYVLCYDPRTRGALWVVEQLRPERLRGDGDRRECDFREDDSVHAYHRATNADYRGSGFDRGHLAAAANHRWSQKAMDDTFYLSNVAPQVPHLNQNAWNNLEKYSRSLTRSYQNVYVCTGPLFLPRTEADGKSYVKYQVIGKNHVAVPTHFFKVLILEAAGGQIELRTYVMPNAPVDEAIPLERFLVPIESIERASGLLFVPNILARAGSLKAITAGSK [ENDOG]”, in data set [1] (cell cycle stage: G1/S), the melting temperature was found to be 51.8 °C. Also, the “solubility change mitosis (log2)” value in data set [2] stood at 0.0884. Besides, in data set [3], the “solubility in G1/S (log2)” value was 0.34. In addition, the thermal stability score was 1.54 in data set [4] (setting [5]) and 0.994 in data set [4] (cell cycle stage: mitosis).

For the sequence “MRDRTHELRQGDDSSDEEDKERVALVVHPGTARLGSPDEEFFHKVRTIRQTIVKLGNKVQELEKQQVTILATPLPEESMKQELQNLRDEIKQLGREIRLQLKAIEPQKEEADENYNSVNTRMRKTQHGVLSQQFVELINKCNSMQSEYREKNVERIRRQLKITNAGMVSDEELEQMLDSGQSEVFVSNILKDTQVTRQALNEISARHSEIQQLERSIRELHDIFTFLATEVEMQGEMINRIEKNILSSADYVERGQEHVKTALENQKKARKKKVLIAICVSITVVLLAVIIGVTVVG [STX4]”, the melting temperature in data set [1] (cell cycle stage: G1/S) worked out at 51.2 °C; in data set [1] (cell cycle stage: mitosis) it was 50.5 °C. Besides, the “solubility change mitosis (log2)” value in data set [2] stood at 0.0104. Further, the “solubility in G1/S (log2)” value in data set [3] was 0.326. Moreover, the thermal stability score in data set [4] (setting [5]) turned out to be 0.652; in data set [4] (cell cycle stage: mitosis) it was 0.313.

In the case of “MRECISIHVGQAGVQIGNACWELYCLEHGIQPDGQMPSDKTIGGGDDSFNTFFSETGAGKHVPRAVFVDLEPTVIDEVRTGTYRQLFHPEQLITGKEDAANNYARGHYTIGKEIIDLVLDRIRKLADQCTGLQGFLVFHSFGGGTGSGFTSLLMERLSVDYGKKSKLEFSIYPAPQVSTAVVEPYNSILTTHTTLEHSDCAFMVDNEAIYDICRRNLDIERPTYTNLNRLISQIVSSITASLRFDGALNVDLTEFQTNLVPYPRIHFPLATYAPVISAEKAYHEQLTVAEITNACFEPANQMVKCDPRHGKYMACCLLYRGDVVPKDVNAAIATIKTKRTIQFVDWCPTGFKVGINYQPPTVVPGGDLAKVQRAVCMLSNTTAVAEAWARLDHKFDLMYAKRAFVHWYVGEGMEEGEFSEAREDMAALEKDYEEVGADSADGEDEGEEY [TUBA1C]”, the values for the melting temperature in data set [1] (cell cycle stage: G1/S) and in data set [1] (cell cycle stage: mitosis) were 55.2 °C and 54.6 °C, respectively. For the same sequence, in data set [2], the “solubility change mitosis (log2)” value was -0.2. In addition, in data set [3], the “solubility in G1/S (log2)” value was found to be 0.171. Moreover, the thermal stability score is 0.287 in data set [4] (setting [5]) and -2.74 in data set [4] (cell cycle stage: mitosis).

As for “MRFRIYKRKVLILTLVVAACGFVLWSSNGRQRKNEALAPPLLDAEPARGAGGRGGDHPSVAVGIRRVSNVSAASLVPAVPQPEADNLTLRYRSLVYQLNFDQTLRNVDKAGTWAPRELVLVVQVHNRPEYLRLLLDSLRKAQGIDNVLVIFSHDFWSTEINQLIAGVNFCPVLQVFFPFSIQLYPNEFPGSDPRDCPRDLPKNAALKLGCINAEYPDSFGHYREAKFSQTKHHWWWKLHFVWERVKILRDYAGLILFLEEDHYLAPDFYHVFKKMWKLKQQECPECDVLSLGTYSASRSFYGMADKVDVKTWKSTEHNMGLALTRNAYQKLIECTDTFCTYDDYNWDWTLQYLTVSCLPKFWKVLVPQIPRIFHAGDCGMHHKKTCRPSTQSAQIESLLNNNKQYMFPETLTISEKFTVVAISPPRKNGGWGDIRDHELCKSYRRLQ [MGAT2]”, the melting temperature amounted to 53.8 °C in data set [1] (cell cycle stage: G1/S) and 53.2 °C in data set [1] (cell cycle stage: mitosis). The “solubility change mitosis (log2)” value in data set [2] is -0.141. In addition, the “solubility in G1/S (log2)” value in data set [3] was -0.0662. In addition, the results for the thermal stability score in data set [4] (setting [5]) and in data set [4] (cell cycle stage: mitosis) were -0.501 and -0.689, respectively.

In data set [1] (cell cycle stage: G1/S), “MRGAGAILRPAARGARDLNPRRDISSWLAQWFPRTPARSVVALKTPIKVELVAGKTYRWCVCGRSKKQPFCDGSHFFQRTGLSPLKFKAQETRMVALCTCKATQRPPYCDGTHRSERVQKAEVGSPL [CISD3]” showed a melting temperature of 50.8 °C. Further, the “solubility change mitosis (log2)” value in data set [2] worked out at 0.0825. Besides, the “solubility in G1/S (log2)” value in data set [3] is -0.205. Also, the thermal stability score in data set [4] (setting [5]) was -0.749; in data set [4] (cell cycle stage: mitosis), -0.997.

These data come from the supplement of paper PMC5998384.
